Literature values in PMC4689310.
Blank lines part the entries; values can stand above or below the substance they belong to.

Legend:
[1] = target: H3 peptide 1-18 (Homo sapiens) (UniProt P68431)
[2] = target: H4K20me1 peptide (Homo sapiens) (UniProt P62805)
[3] = target: H4K16ac peptide (Homo sapiens) (UniProt P62805); assay: ITC
[4] = target: H3 K4un/K23ac peptide (Homo sapiens) (UniProt P68431)
[5] = target: H3 unmodified K4 peptide (Homo sapiens) (UniProt P68431)
[6] = target: H3K23ac peptide 13-32 (Homo sapiens) (UniProt P68431)
[7] = target: H3 peptide 1-28 (Homo sapiens) (UniProt P68431)
[8] = target: H3K9me3 peptide 1-28 (Homo sapiens) (UniProt P68431)
[9] = target: H3K18ac peptide 1-28 (Homo sapiens) (UniProt P68431)

DPF3b tandem PHD fingers, sequence (Q92784 259-366): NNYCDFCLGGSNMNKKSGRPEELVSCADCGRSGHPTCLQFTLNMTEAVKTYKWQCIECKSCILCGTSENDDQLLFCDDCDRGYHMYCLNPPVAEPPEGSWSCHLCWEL

Substance: MSL3 chromodomain (from UniProt Q8N5Y2)
Kd [2]: 10 µM

Substance: TAF1 double bromodomain (from UniProt P21675)
Kd [3]: 39 µM

Now from value to substance:

Kd [1]: 2.3 µM
Substance: DPF3b tandem PHD fingers (from UniProt Q92784)

Kd [4]: 0.096 µM
Kd [5]: 2.3 µM
Kd [6]: 8.8 µM
Substance: TRIM24 PHD-Bromo (from UniProt O15164)

Kd [7]: 0.46 µM
Kd [8]: 0.2 µM
Kd [9]: 0.21 µM
Substance: TRIM33 PHD-Bromo (from UniProt Q9UPN9)
